US20060275823A1 (published 2006)

Target: T1, ICS (pro-IL-1beta-derived epitope)
T1 construct: also called ICS peptide; 14-mer called ICS
T1 peptide: NEAYVHDGPVRSLN
Experiment: method not stated; measured in a different context from the cleavage assay, with LEPB lacking a free N-terminus

B1: LEPB (peptide)
peptide: KARKEAELAAATAEQ
notes: In the ICE cleavage experiment it was a synthetic peptide with a free N-terminus; also called synthetic LEPB; 15mer (LEPB)
Kd: 2000 nM
